Our source for the Km, Vmax and kcat values is publication PMC6815381, “Unravelling the diversity of glycoside hydrolase family 13 α-amylases from Lactobacillus plantarum WCFS1” (Microbial Cell Factories, 2019).

Substrate in the series: O=[N+]([O-])c1ccc(O[C@H]2O[C@H](CO)[C@@H](O[C@H]3O[C@H](CO)[C@@H](O)[C@H](O)[C@H]3O)[C@H](O)[C@H]2O)cc1
Put plainly: purified protein. It counts as biochemical, Lactiplantibacillus plantarum. The note with it: 50 mM MOPS pH 7.0, 20 mM NaCl, 1 mM DTT, 30 °C, substrate 0-10 mM.

A word on the Km: it is the substrate concentration at which the rate is half of its maximum. One may read the Vmax as the rate approached at saturating substrate. For orientation: kcat means the maximal rate divided by the concentration of active sites.

B1: Lp_0179 (Amy2), maltose-forming α-amylase (Lactiplantibacillus plantarum WCFS1) (protein)
chain: MARDTQTQLRNEMIYSVFVRNYSEAGNFAGVTADLQRIKDLGTDILWLLPINPIGEVNRKGTLGSPYAIKDYRGINPEYGTLADFKALTDRAHELGMKVMLDIVYNHTSPDSVLATEHPEWFYHDADGQLTNKVGDWSDVKDLDYGHHELWQYQIDTLLYWSQFVDGYRCDVAPLVPLDFWLEARKQVNAKYPETLWLAESAGSGFIEELRSQGYTGLSDSELYQAFDMTYDYDVFGDFKDYWQGRSTVERYVDLLQRQDATFPGNYVKMRFLENHDNARMMSLMHSKAEAVNNLTWIFMQRGIPLIYNGQEFLAEHQPSLFDRDTMVADRHGDVTPLIQKLVTIKQLPLLRAADYQLAVVEEGIVKITYRAAGEALTAWIPLKGQVTAVATKLAAGSYQNLLTDGPTEVVDGKLTVDGQPVLIKYVTNTAVTKVADQSN
notes: gene 1320 bp
Consider B1, for which the Michaelis constant (Km) worked out at 320 ± 70 µM, the Vmax came to 0.017 µmol/min and the catalytic constant (kcat) was found to be 3.856 ± 3.33e-05 s⁻¹.

B2: Lp_2757, maltogenic α-amylase (Lactiplantibacillus plantarum WCFS1) (protein)
chain: MQLAGIRHRPESEDTAVLAAHQLQVRLQTARDDVAQVEILFADSYLWQEGTTALERRIMQPGLATQGNQYWQTTLTVPTNRVVYAFLITDTIGATVGYGEGGFFDDVATNWQTVGNYFHMPYMHVSDAELPPAWVKETVWYQIFPERFANGVRQNDPANVQPWGAGRVHRDSFYGGDLPGITAHLDDLAALGVNGLYLCPIFTSPSNHKYDTIDHFEIDPHFGTKADFQALVDGAHARGMRVMLDAVFNHFGEQSPQWQDVIKNGEQSRFADWFHIHGWPVGRDPKTKRLNYETFATGAAMPKVNTQNPAVQAYLIDVTKYWIEQFGIDAWRFDVADEVDHGFWRALCGALRAIKPDVYLLGESWHSSQSLVGNGQFNAVMNYPLTQPILALFNGQLNPEDYVGKTNLELMMYRQPNQQAMFNALDTHDTPRLLTTLHGQLTKFKSALTLLMLLPGSPCIYYGTEVAMAGGADPDNRRCMNWQPDEQEQQVRQFVTRLIKFRRQQADFLATSQLTWTIDGHCLILTRTDVEQTIQGRFNLGAQAVSTVSGVSPILTAGITANEMAPGGFELTVA
notes: gene 1722 bp
Regarding B2, the Km came out at 620 ± 120 µM, the Vmax is 0.016 µmol/min and the kcat came out at 4.9142 ± 1.67e-05 s⁻¹.
